Measurements as given in paper PMC9482650, “Quantitative fragmentomics allow affinity mapping of interactomes” (Nature Communications, 2022).

Key:
Test in all cases: holdup assay
Parameters in all cases: key: below the threshold = too weak to quantify, mostly under pKd 3.1 to 4
TJP2_1, Q9UDY2 = target: TJP2_1, Q9UDY2
MAGI2_4, Q86UL8 = target: MAGI2_4, Q86UL8
SNTG1, Q9NSN8 = target: T1, SNTG1, Q9NSN8
T1 sequence (Q9NSN8 52-150, limits assumed, looked up): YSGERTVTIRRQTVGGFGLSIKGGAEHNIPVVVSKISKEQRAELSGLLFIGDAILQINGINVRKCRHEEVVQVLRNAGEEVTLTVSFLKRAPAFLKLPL

GRIP1_3, Q9Y3R0 = target: T2, GRIP1_3, Q9Y3R0
T2 sequence (Q9Y3R0 247-346, limits assumed, looked up): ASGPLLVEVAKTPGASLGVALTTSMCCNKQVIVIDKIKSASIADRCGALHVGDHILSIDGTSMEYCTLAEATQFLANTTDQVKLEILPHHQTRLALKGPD

DLG3_1, Q92796 = target: T3, DLG3_1, Q92796
T3 sequence (Q92796 125-227, limits assumed, looked up): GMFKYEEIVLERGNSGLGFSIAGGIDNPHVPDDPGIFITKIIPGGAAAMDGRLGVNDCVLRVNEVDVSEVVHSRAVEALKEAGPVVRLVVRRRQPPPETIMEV

Inadl_2, Q8NI35 = target: Inadl_2, Q8NI35
LNX2_2, Q8N448 = target: T4, LNX2_2, Q8N448
T4 sequence (Q8N448 334-432, limits assumed, looked up): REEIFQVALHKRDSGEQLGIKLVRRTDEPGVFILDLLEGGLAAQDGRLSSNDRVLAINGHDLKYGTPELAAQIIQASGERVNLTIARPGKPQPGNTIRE

MAGI2_6, Q86UL8 = target: MAGI2_6, Q86UL8
ARHGEF11, O15085 = target: T5, ARHGEF11, O15085
T5 sequence (O15085 42-136, limits assumed, looked up): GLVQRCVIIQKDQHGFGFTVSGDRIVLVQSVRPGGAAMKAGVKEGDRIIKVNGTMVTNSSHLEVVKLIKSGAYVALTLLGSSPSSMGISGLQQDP

GRIP1_5, Q9Y3R0 = target: T6, GRIP1_5, Q9Y3R0
T6 sequence (Q9Y3R0 568-668, limits assumed, looked up): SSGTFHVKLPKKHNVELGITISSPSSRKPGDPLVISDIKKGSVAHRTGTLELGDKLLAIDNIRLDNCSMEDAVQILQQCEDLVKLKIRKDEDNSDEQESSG

FRMPD2_3, Q68DX3 = target: FRMPD2_3, Q68DX3
FRMPD4, Q14CM0 = target: FRMPD4, Q14CM0
LDB3, O75112 = target: LDB3, O75112
DVL3, Q92997 = target: T7, DVL3, Q92997
T7 sequence (Q92997 244-331, limits assumed, looked up): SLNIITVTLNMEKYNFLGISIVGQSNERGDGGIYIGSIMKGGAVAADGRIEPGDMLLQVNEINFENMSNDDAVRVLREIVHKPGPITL

MAGI1_2, Q96QZ7 = target: MAGI1_2, Q96QZ7
MAGI1_1, Q96QZ7 = target: MAGI1_1, Q96QZ7
Inadl_5, Q8NI35 = target: Inadl_5, Q8NI35
DLG4_1, P78352 = target: DLG4_1, P78352
HTRA4, P83105 = target: T8, HTRA4, P83105
T8 sequence (P83105 378-476, limits assumed, looked up): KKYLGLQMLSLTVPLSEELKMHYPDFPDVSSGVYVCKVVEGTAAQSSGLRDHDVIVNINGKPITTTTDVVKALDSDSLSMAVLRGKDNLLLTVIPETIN

APBA2_1, Q99767 = target: T9, APBA2_1, Q99767
T9 sequence (Q99767 563-664, limits assumed, looked up): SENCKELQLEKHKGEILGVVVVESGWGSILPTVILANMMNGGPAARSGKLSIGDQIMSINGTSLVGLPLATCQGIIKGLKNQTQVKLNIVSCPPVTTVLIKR

Inadl_4, Q8NI35 = target: Inadl_4, Q8NI35
PDZRN4_1, Q6ZMN7 = target: PDZRN4_1, Q6ZMN7
Inadl_6, Q8NI35 = target: Inadl_6, Q8NI35
RHPN1, Q8TCX5 = target: T10, RHPN1, Q8TCX5
T10 sequence (Q8TCX5 508-602, limits assumed, looked up): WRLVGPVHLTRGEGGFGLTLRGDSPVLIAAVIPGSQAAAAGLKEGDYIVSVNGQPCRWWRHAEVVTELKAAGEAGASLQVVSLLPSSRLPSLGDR

NHERF3_1, Q5T2W1 = target: T11, NHERF3_1, Q5T2W1
T11 sequence (Q5T2W1 4-100, limits assumed, looked up): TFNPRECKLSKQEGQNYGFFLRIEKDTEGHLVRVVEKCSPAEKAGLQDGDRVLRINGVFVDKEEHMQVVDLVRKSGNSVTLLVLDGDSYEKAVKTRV

GRIP2_5, Q9C0E4 = target: GRIP2_5, Q9C0E4
DLG1_1, Q12959 = target: DLG1_1, Q12959
[1] = plain residues with an end cap or a label only (N-terminal biotin on a linker: gsgsgs; C-terminal amide)
[2] = plain residues with an end cap or a label only (N-terminal biotin on a linker: ttds)
[3] = plain residues with an end cap or a label only (N-terminal biotin on a linker: ahx)

Sequence of MAGI2_6, Q86UL8 (Q86UL8 1141-1229): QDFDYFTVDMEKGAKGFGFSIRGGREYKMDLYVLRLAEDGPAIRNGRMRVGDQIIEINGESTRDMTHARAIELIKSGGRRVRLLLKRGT
Sequence of MAGI2_4, Q86UL8 (Q86UL8 772-865): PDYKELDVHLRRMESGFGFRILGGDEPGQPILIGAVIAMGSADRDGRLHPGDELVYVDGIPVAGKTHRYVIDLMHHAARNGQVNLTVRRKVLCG
Sequence of DLG4_1, P78352 (P78352 62-152): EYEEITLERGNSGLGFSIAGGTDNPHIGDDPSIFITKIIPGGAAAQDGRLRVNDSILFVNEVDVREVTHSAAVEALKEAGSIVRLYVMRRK
Sequence of TJP2_1, Q9UDY2 (Q9UDY2 24-128): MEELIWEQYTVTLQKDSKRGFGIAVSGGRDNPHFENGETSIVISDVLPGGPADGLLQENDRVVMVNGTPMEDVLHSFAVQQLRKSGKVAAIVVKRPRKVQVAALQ
Sequence of LDB3, O75112 (O75112 1-94): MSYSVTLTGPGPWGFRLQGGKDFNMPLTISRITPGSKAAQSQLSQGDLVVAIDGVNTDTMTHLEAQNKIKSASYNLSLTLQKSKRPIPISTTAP
Sequence of FRMPD2_3, Q68DX3 (Q68DX3 1073-1166): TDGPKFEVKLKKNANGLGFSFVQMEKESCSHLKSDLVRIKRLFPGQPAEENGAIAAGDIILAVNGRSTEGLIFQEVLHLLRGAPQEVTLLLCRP
Sequence of Inadl_6, Q8NI35 (Q8NI35 1058-1167): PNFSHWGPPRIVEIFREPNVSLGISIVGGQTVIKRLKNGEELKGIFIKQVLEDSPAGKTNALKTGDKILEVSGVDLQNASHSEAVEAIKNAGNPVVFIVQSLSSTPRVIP
Sequence of MAGI1_1, Q96QZ7 (Q96QZ7 1-106): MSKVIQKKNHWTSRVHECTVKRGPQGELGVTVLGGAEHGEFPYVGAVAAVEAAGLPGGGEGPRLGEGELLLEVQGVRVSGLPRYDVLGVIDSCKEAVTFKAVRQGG
Sequence of GRIP2_5, Q9C0E4 (Q9C0E4 544-642): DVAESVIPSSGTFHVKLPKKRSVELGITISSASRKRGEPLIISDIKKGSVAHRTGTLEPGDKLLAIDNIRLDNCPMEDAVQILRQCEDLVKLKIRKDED
Sequence of FRMPD4, Q14CM0 (Q14CM0 67-160): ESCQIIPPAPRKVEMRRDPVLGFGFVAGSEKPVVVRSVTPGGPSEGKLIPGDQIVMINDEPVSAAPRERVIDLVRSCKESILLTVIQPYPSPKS
Sequence of Inadl_2, Q8NI35 (Q8NI35 238-335): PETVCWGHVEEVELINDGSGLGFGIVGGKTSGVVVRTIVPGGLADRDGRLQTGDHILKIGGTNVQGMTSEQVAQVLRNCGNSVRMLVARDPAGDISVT
Sequence of Inadl_4, Q8NI35 (Q8NI35 547-651): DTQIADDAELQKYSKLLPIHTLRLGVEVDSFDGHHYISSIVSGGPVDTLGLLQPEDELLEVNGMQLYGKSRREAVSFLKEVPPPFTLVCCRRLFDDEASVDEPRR
Sequence of PDZRN4_1, Q6ZMN7 (Q6ZMN7 213-318): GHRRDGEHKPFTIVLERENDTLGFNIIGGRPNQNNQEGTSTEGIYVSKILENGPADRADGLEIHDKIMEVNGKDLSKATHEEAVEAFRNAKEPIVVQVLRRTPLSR
Sequence of MAGI1_2, Q96QZ7 (Q96QZ7 456-580): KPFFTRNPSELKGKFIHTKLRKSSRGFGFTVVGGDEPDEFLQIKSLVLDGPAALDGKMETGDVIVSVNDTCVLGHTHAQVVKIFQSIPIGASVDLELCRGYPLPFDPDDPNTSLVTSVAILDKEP
Sequence of Inadl_5, Q8NI35 (Q8NI35 673-780): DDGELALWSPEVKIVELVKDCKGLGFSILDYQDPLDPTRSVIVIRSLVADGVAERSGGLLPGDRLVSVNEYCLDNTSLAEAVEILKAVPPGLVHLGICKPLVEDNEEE

## YGIVQETTFDLGGDIH [MLLT4_int, P55196]
TJP2_1, Q9UDY2; [1]
  pKd: below the threshold
MAGI2_4, Q86UL8; [1]
  pKd: below the threshold
SNTG1, Q9NSN8; [1]
  pKd: below the threshold
GRIP1_3, Q9Y3R0; [1]
  pKd: below the threshold
DLG3_1, Q92796; [1]
  pKd: below the threshold
Inadl_2, Q8NI35; [1]
  pKd: below the threshold
LNX2_2, Q8N448; [1]
  pKd: below the threshold
MAGI2_6, Q86UL8; [1]
  pKd: below the threshold
ARHGEF11, O15085; [1]
  pKd: below the threshold
GRIP1_5, Q9Y3R0; [1]
  pKd: below the threshold
FRMPD2_3, Q68DX3; [1]
  pKd: below the threshold
FRMPD4, Q14CM0; [1]
  pKd: below the threshold
LDB3, O75112; [1]
  pKd: below the threshold
DVL3, Q92997; [1]
  pKd: below the threshold
MAGI1_2, Q96QZ7; [1]
  pKd: below the threshold
MAGI1_1, Q96QZ7; [1]
  pKd: below the threshold
Inadl_5, Q8NI35; [1]
  pKd: below the threshold
DLG4_1, P78352; [1]
  pKd: below the threshold
HTRA4, P83105; [1]
  pKd: below the threshold
APBA2_1, Q99767; [1]
  pKd: below the threshold
Inadl_4, Q8NI35; [1]
  pKd: below the threshold
PDZRN4_1, Q6ZMN7; [1]
  pKd: below the threshold
Inadl_6, Q8NI35; [1]
  pKd: below the threshold
RHPN1, Q8TCX5; [1]
  pKd: below the threshold
NHERF3_1, Q5T2W1; [1]
  pKd: below the threshold
GRIP2_5, Q9C0E4; [1]
  pKd: below the threshold
DLG1_1, Q12959; [1]
  pKd: below the threshold

## RPLPRKVSQL [DOCK4, Q8N1I0]
TJP2_1, Q9UDY2; [2]
  pKd: below the threshold
MAGI2_4, Q86UL8; [2]
  pKd: below the threshold
SNTG1, Q9NSN8; [2]
  pKd: below the threshold
GRIP1_3, Q9Y3R0; [2]
  pKd: below the threshold
DLG3_1, Q92796; [2]
  pKd: below the threshold
Inadl_2, Q8NI35; [2]
  pKd: below the threshold
LNX2_2, Q8N448; [2]
  pKd: below the threshold
MAGI2_6, Q86UL8; [2]
  pKd: below the threshold
ARHGEF11, O15085; [2]
  pKd: 3.62
GRIP1_5, Q9Y3R0; [2]
  pKd: below the threshold
FRMPD2_3, Q68DX3; [2]
  pKd: below the threshold
FRMPD4, Q14CM0; [2]
  pKd: below the threshold
LDB3, O75112; [2]
  pKd: below the threshold
DVL3, Q92997; [2]
  pKd: below the threshold
MAGI1_2, Q96QZ7; [2]
  pKd: 4.51
MAGI1_1, Q96QZ7; [2]
  pKd: below the threshold
Inadl_5, Q8NI35; [2]
  pKd: below the threshold
DLG4_1, P78352; [2]
  pKd: below the threshold
HTRA4, P83105; [2]
  pKd: below the threshold
APBA2_1, Q99767; [2]
  pKd: below the threshold
Inadl_4, Q8NI35; [2]
  pKd: below the threshold
PDZRN4_1, Q6ZMN7; [2]
  pKd: 3.5
Inadl_6, Q8NI35; [2]
  pKd: below the threshold
RHPN1, Q8TCX5; [2]
  pKd: below the threshold
NHERF3_1, Q5T2W1; [2]
  pKd: 4.21
GRIP2_5, Q9C0E4; [2]
  pKd: below the threshold
DLG1_1, Q12959; [2]
  pKd: below the threshold

## RAVEEEESRF [PSCDBP, O60759]
TJP2_1, Q9UDY2; [3]
  pKd: below the threshold
MAGI2_4, Q86UL8; [3]
  pKd: below the threshold
SNTG1, Q9NSN8; [3]
  pKd: below the threshold
GRIP1_3, Q9Y3R0; [3]
  pKd: below the threshold
DLG3_1, Q92796; [3]
  pKd: below the threshold
Inadl_2, Q8NI35; [3]
  pKd: below the threshold
LNX2_2, Q8N448; [3]
  pKd: below the threshold
MAGI2_6, Q86UL8; [3]
  pKd: below the threshold
ARHGEF11, O15085; [3]
  pKd: below the threshold
GRIP1_5, Q9Y3R0; [3]
  pKd: below the threshold
FRMPD2_3, Q68DX3; [3]
  pKd: below the threshold
FRMPD4, Q14CM0; [3]
  pKd: below the threshold
LDB3, O75112; [3]
  pKd: below the threshold
DVL3, Q92997; [3]
  pKd: below the threshold
MAGI1_2, Q96QZ7; [3]
  pKd: below the threshold
MAGI1_1, Q96QZ7; [3]
  pKd: below the threshold
Inadl_5, Q8NI35; [3]
  pKd: below the threshold
DLG4_1, P78352; [3]
  pKd: below the threshold
HTRA4, P83105; [3]
  pKd: below the threshold
APBA2_1, Q99767; [3]
  pKd: below the threshold
Inadl_4, Q8NI35; [3]
  pKd: below the threshold
PDZRN4_1, Q6ZMN7; [3]
  pKd: below the threshold
Inadl_6, Q8NI35; [3]
  pKd: below the threshold
RHPN1, Q8TCX5; [3]
  pKd: 4.44
NHERF3_1, Q5T2W1; [3]
  pKd: 4.34
GRIP2_5, Q9C0E4; [3]
  pKd: below the threshold
DLG1_1, Q12959; [3]
  pKd: below the threshold
